pIC50: −log10 of the molar value. Square brackets hold non-standard residues; d marks the D form. Peptide text beside a SMILES is read from it. * marks the point of attachment. Benzoyl(3-OH,4-OMe) = COc1ccc(C(=O)*)cc1O; Fmoc = O=C(OCC1c2ccccc2-c2ccccc21)*; ClZ = O=C(OCc1ccccc1Cl)*; Cbz = O=C(OCc1ccccc1)*; βAla = NCCC(=O)O
target: T1, Gadd45β/MKK7 interaction (Homo sapiens, UniProt O14733); test: ELISA competition assay of biotin-hGadd45β binding to coated GST-MKK7; settings: Table I, initial Elisa screening; coated MKK7 42 nM, biotin-hGadd45β 21 nM; competitor 21 nM, sub-libraries 42 nM
T1 construct: The GST-fused full-length kinase was coated for 16 h at 4° C., at a concentration of 42 nM; made in house
T1 sequence (O14733 1-419): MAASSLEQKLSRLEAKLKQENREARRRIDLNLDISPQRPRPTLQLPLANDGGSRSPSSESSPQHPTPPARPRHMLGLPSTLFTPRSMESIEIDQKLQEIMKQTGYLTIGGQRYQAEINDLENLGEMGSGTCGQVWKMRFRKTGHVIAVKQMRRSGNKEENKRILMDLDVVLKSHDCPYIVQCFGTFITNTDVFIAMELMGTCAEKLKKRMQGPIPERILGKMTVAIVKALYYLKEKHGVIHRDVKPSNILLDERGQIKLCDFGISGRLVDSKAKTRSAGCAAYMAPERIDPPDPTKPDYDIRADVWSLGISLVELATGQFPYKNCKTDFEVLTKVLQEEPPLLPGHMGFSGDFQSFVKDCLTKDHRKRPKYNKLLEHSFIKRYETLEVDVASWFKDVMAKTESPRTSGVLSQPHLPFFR
Description: To evaluate the inhibitory properties of peptides, ELISA-based assays were performed. In these assays, a fusion protein of glutathione S-transferase (GST) and mitogen-activated protein kinase kinase 7 (MKK7) was coated onto wells of a 96-well plate, while biotinylated-hGadd45β was used in solution. hGadd45β was biotinylated using an EZ Link NHS-LC-biotin kit (Pierce, Rockford, Ill.), according to Tornatore et al. (Tornatore L., et al. (2008). J Mol Biol; 378:97-111).
Firstly, the association between Gadd45β and MKK7 was investigated by ELISA assays as also reported in Tornatore et al. (Tornatore L., et al. (2008). J Mol Biol; 378:97-111). The GST-fused full-length kinase was coated for 16 h at 4° C., at a concentration of 42 nM in buffer A (25 mM Tris pH 7.5, 150 mM NaCl, 1 mM DTT and 1 mM EDTA) into wells of a 96-well microliter plate. Some wells were filled with buffer alone and were used as blanks. After incubation for 16 h at 4° C., the solutions were removed and the wells were filled with 350 μL of a 1% (w/v) solution of NFDM (Non Fat Dry Milk) in PBS (phosphate buffered saline). The plate was incubated for 1 h at 37° C. in the dark. After washing with buffer T-PBS (PBS with 0.004% (v/v) Tween detergent), the wells were filled with 100 μL of biotinylated-hGadd45β at concentrations ranging from 8.4 nM to 168 nM. Each data point was performed in triplicate. Following incubation for 1 hr in the dark at 37° C. the solutions were removed and the wells were again washed with T-PBS. Then 100 μL of a 1:10,000 dilution of horseradish peroxidase-conjugated streptavidin dissolved in buffer was added to each well and the plate incubated for 1 hr at 37° C. in the dark. After removal of the enzyme solution and washing, 100 μL of the chromogenic substrate o-phenylendiamine (0.4 mg/mL in 50 mM sodium phosphate-citrate buffer, containing 0.4 mg/mL of urea in hydrogen peroxide) was added and the colour was allowed to develop in the dark for 5 min. The reaction was stopped by adding 50 μL of 2.5 M H2SO4. The absorbance at 490 nm was measured in all wells and the values were averaged after subtracting the corresponding blanks. Bound protein was then detected as described above. The molar concentration of biotinylated-hGadd45β at which the half-maximal ELISA signal is detected corresponds to the dissociation constant (KD) (Friguet B, Chaffotte A F, Djavadi-Ohaniance L, Goldberg M E. J Immunol Methods. 1985 Mar. 18; 77 (2):305-19). Binding competition assays were performed by coating GST-MKK7 at 42 nM as described, a concentration of biotinylated-hGadd45β of 21 nM (pre-saturation conditions 1:0.5 mol/mol ratio) and, in a first test, using competitors at 21 nM. The binding of biotinylated hGadd45β to GST-MKK7 was analyzed in the presence of increasing amounts of competitor peptide (concentrations ranging from 0.01 nM to 100 nM), and the values obtained with the competitor were expressed as the percentage of the binding detected in the absence of competitor. […] According to the convention adopted in the table “L-Xaa” and “D-Xaa” refer to the L and D forms of amino acid Xaa.
A simplified combinatorial peptide library (Marasco et al. 2008, Curr. Protein Pept. Sci. 9:447-67) was screened for antagonists of the Gadd45β/MKK7 interaction. This library contained a total of 12^4=20,736 different tetrapeptides formed by combinations of the following amino acid residues Gln (Q), Ser (S), Arg (R), Ala (A), Tyr (Y), Pro (P), Met (M), Cys (C), Phe (F), Leu (L), His (H), Asp (D), and was iteratively deconvoluted in four steps by ELISA competition assays using at each step coated MKK7 (42 nM), soluble-biotin-hGadd45β (21 nM) and each of the 12 sub-libraries (42 nM).

Row | Compound | % Inhibition of Gadd45β-MKK7 binding
1 | Fmoc(βAla)2-YDHA-NH2 ({Fmoc-βAla-βAla}-YDHA-NH2; SMILES C[C@H](NC(=O)[C@H](Cc1c[nH]cn1)NC(=O)[C@H](CC(=O)O)NC(=O)[C@H](Cc1ccc(O)cc1)NC(=O)CCNC(=O)CCNC(=O)OCC1c2ccccc2-c2ccccc21)C(N)=O) | 15%
2 | Fmoc(βAla)2-YDHC-NH2 ({Fmoc-βAla-βAla}-YDHC-NH2; SMILES NC(=O)[C@H](CS)NC(=O)[C@H](Cc1c[nH]cn1)NC(=O)[C@H](CC(=O)O)NC(=O)[C@H](Cc1ccc(O)cc1)NC(=O)CCNC(=O)CCNC(=O)OCC1c2ccccc2-c2ccccc21) | 44%

same assay, conditions: Table II, modified pure peptides

Row | Compound | % Inhibition of Gadd45β-MKK7 binding
3 | Ac-WDHF-NH2 | 28%
4 | Ac-WDHW-NH2 | 50%
5 | Ac-WDKF-NH2 | 26%
6 | Ac-WDKW-NH2 | 69%
7 | Ac-WDRF-NH2 | 46%
8 | Ac-WDRW-NH2 | 93%
9 | Ac-WEHF-NH2 | 36%
10 | Ac-WEHW-NH2 | 75%
11 | Ac-WEKF-NH2 | 65%
12 | Ac-WEKW-NH2 | 65%
13 | Ac-WERF-NH2 | 29%
14 | Ac-WERW-NH2 | 69%
15 | Ac-YDHF-NH2 | 94%
16 | Ac-YDHQ-NH2 | 99%
17 | Ac-YDHW-NH2 | 58%
18 | Ac-YDKF-NH2 | 35%
19 | Ac-YDKW-NH2 | 23%
20 | Ac-YDRF-NH2 | 45%
21 | Ac-YDRW-NH2 | 43%
22 | Ac-YEHF-NH2 | 52%
23 | Ac-YEHW-NH2 | 64%
24 | Ac-YEKF-NH2 | 64%
25 | Ac-YEKW-NH2 | 27%
26 | Ac-YERF-NH2 | 93%
27 | Ac-YERW-NH2 | 59%

same assay, conditions: Table III, modified peptides

Row | Compound | % Inhibition of Gadd45β-MKK7 binding
28 | 2CI-Z-YDHF-NH2 (ClZ-YDHF-NH2) | 38%
29 | 2CI-Z-YDHQ-NH2 (ClZ-YDHQ-NH2) | 40%
30 | 2CI-Z-YERF-NH2 (ClZ-YERF-NH2) | 38%
31 | 3-OH—4MeO-Benzoid acid-YDHF-NH2 ({Benzoyl(3-OH,4-OMe)}-YDHF-NH2) | 81%
32 | 3-OH—4MeO-Benzoid acid-YDHQ-NH2 ({Benzoyl(3-OH,4-OMe)}-YDHQ-NH2) | 7%
33 | 3-OH—4MeO-Benzoid acid-YERF-NH2 ({Benzoyl(3-OH,4-OMe)}-YERF-NH2) | 86%
34 | Ac-AERF-NH2 | 7%
35 | Ac-PERF-NH2 | 24%
36 | Ac-YARF-NH2 | 17%
37 | Ac-YDHFLys(Z)-NH2 (Ac-YDHFK(Cbz)-NH2; SMILES CC(=O)N[C@@H](Cc1ccc(O)cc1)C(=O)N[C@@H](CC(=O)O)C(=O)N[C@@H](Cc1c[nH]cn1)C(=O)N[C@@H](Cc1ccccc1)C(=O)N[C@@H](CCCCNC(=O)OCc1ccccc1)C(N)=O) | 8%
38 | Ac-YDHQLys(Z)-NH2 (Ac-YDHQK(Cbz)-NH2; SMILES CC(=O)N[C@@H](Cc1ccc(O)cc1)C(=O)N[C@@H](CC(=O)O)C(=O)N[C@@H](Cc1c[nH]cn1)C(=O)N[C@@H](CCC(N)=O)C(=O)N[C@@H](CCCCNC(=O)OCc1ccccc1)C(N)=O) | 2%
39 | Ac-YDRF-NH2 | 19%
40 | Ac-YEAF-NH2 | 13%
41 | Ac-YEHF-NH2 | 23%
42 | Ac-YEPF-NH2 | 13%
43 | Ac-YERA-NH2 | 28%
44 | Ac-YERFLys(Z)-NH2 (Ac-YERFK(Cbz)-NH2; SMILES CC(=O)N[C@@H](Cc1ccc(O)cc1)C(=O)N[C@@H](CCC(=O)O)C(=O)N[C@@H](CCCNC(=N)N)C(=O)N[C@@H](Cc1ccccc1)C(=O)N[C@@H](CCCCNC(=O)OCc1ccccc1)C(N)=O) | 6%
45 | Ac-YERP-NH2 | 0%
46 | Ac-YPRF-NH2 | 13%
47 | Benzoic acid-YDHF-NH2 | 0%
48 | Benzoic acid-YDHQ-NH2 | 1%
49 | Benzoic acid-YERF-NH2 | 24%

same assay, conditions: Table V, FIG. 3C; read-out: IC50 ELISA

Row | Compound | pIC50
50 | CC(=O)N[C@H](CC1CCCCC1)C(=O)N[C@H](CCCNC(=N)N)C(=O)N[C@H](Cc1ccccc1)C(N)=O [Compound 20, Ac-Cha-Arg-Phe-NH2] | < 8.30
51 | N=C(N)NCCC[C@@H](NC(=O)[C@@H](CCC(=O)O)NC(=O)[C@@H](Cc1ccc(O)cc1)NC(=O)[C@@H](Cc1ccc(O)cc1)NC(=O)OCc1ccccc1)C(=O)N[C@H](Cc1ccccc1)C(N)=O [Compound 22, Z-Tyr-Tyr-Glu-Arg-Phe-NH2] (Cbz-[dY][dY][dE][dR][dF]-NH2) | < 8.30
52 | NC(=O)CC[C@@H](NC(=O)[C@@H](Cc1c[nH]cn1)NC(=O)[C@@H](CC(=O)O)NC(=O)[C@@H](Cc1ccc(O)cc1)NC(=O)OCc1ccccc1)C(N)=O [Compound 32, Z-Tyr-Asp-His-Gln-NH2] (Cbz-[dY][dD][dH][dQ]-NH2) | < 8.00
53 | NC(=O)CC[C@@H](NC(=O)[C@@H](Cc1c[nH]cn1)NC(=O)[C@@H](CC(=O)O)NC(=O)[C@@H](Cc1ccc(O)cc1)NC(=O)[C@@H](Cc1ccc(O)cc1)NC(=O)OCc1ccccc1)C(N)=O [Compound 33, Z-Tyr-Tyr-Asp-His Gln-NH2] (Cbz-[dY][dY][dD][dH][dQ]-NH2) | < 8.00

same assay, conditions: Table VI; compounds 0.01-100 nM; read-out: IC50 Elisa

Row | Compound | pIC50
54 | CC(=O)NC(Cc1ccc(O)cc1)C(=O)NC(Cc1ccccc1)C(N)=O (stereo not drawn) [Compound A1, Ac-YF-NH2] (Ac-Tyr-Phe-NH2; configuration not given here) | < 7.00
55 | CC(=O)NC(Cc1ccccc1)C(=O)NC(CCCNC(=N)N)C(=O)NC(Cc1ccc(O)cc1)C(N)=O (stereo not drawn) [Compound O1, Ac-FRY-NH2] (Ac-Phe-Arg-Tyr-NH2; configuration not given here) | < 7.00

same assay, conditions: read-out: IC50s in vitro

Row | Compound | pIC50
56 | N=C(N)NCCC[C@@H](NC(=O)[C@@H](Cc1ccc(O)cc1)NC(=O)OCc1ccccc1)C(=O)N[C@H](Cc1ccccc1)C(N)=O [Compound 19, Z-Tyr-Arg-Phe-NH2] (Cbz-[dY]-[dR]-[dF]-NH2) | 10.00

same assay, conditions: result in words

Row | Compound | inhibition of Gadd45β/MKK7 complex formation in ELISA competition assays
57 | CC(=O)N[C@H](CC1CCCCC1)C(=O)N[C@H](CCCNC(=N)N)C(=O)N[C@H](Cc1ccccc1)C(N)=O [Compound 20, Ac-Cha-Arg-Phe-NH2] | inactive
58 | Ac-YDHF-NH2 | IC50s similar to those of DTPs
59 | Ac-YERF-NH2 | IC50s similar to those of DTPs

— patent publication US8993717B2, “Gadd45beta targeting agents” (Imperial Innovations Limited, priority 2009, dated 2015)
